This data set is described as follows: self-splicing fitness, log relative to wild type (ln ratio); higher = more splicing; Tetrahymena group I intron in knt gene, E. coli kanamycin selection, DiMSum; sequences stand for … in CUCUCU…GGAGGGAAAAGUUAUCAGGCAUGCACCUGGUAGCUAGUCUUUAAACCAAUAGAUUGCAUCGGUUUAAAAGGCAAGACCGUCAAAUUGCGGGAAAGGGGUCAACAGCCGUUCAGUACCAAGUCUCAGGGGAAACUUUGAGAUGGCCUUGCAAAGGGUAUGGUAAUAAGCUGACGGACAUGGUCCUAACCACGCAGCCAAGUCCUAAGUCAACAGAUCUUCUGUUGAUAUGGAUGCAGUUCACAGACUAAAUGUCGGUCGGGGAAGAUGUAUUCUUCUCAUAAGAUAUAGUCGGACCUCUCCUUAAUGGGAGCUAGCGGAUGAAGUGAUGCAACACUGGAGCCGCUGGGAACUAAUUUGUAUGCGAAAGUAUAUUGAUUAGUUUUGGAGUACUCGUGGUCG
The method in brief:
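Six replicate transformations of E. coli BL21(DE3) with a pET-22b(+) library were grown overnight at 37°C or 30°C. The library randomised all eight P1ex-region intron nucleotides, the intron lying in the knt kanamycin-resistance gene, and plates were LB agar with or without 25 μg/mL kanamycin plus 100 μg/mL carbenicillin, 50 μM IPTG and 0.2% rhamnose. Pooled colonies were amplicon-sequenced on an Illumina HiSeq 2500, and fitness is the DiMSum error-weighted combination of wild-type-normalised replicate fold changes, kanamycin versus none.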

± gives the uncertainty stated by the source.

With UGUCAGCAAUAUUACGAGUA, the “self-splicing fitness (ln)” value (30 °C) was -1.31 ± 0.066 and the “self-splicing fitness (ln)” value (37 °C) is -0.775 ± 0.073.
On to UGUCAGCAAUAUUACGAUUG, for which the “self-splicing fitness (ln)” value runs as follows: (30 °C) -0.341 ± 0.076; (37 °C) 0.249 ± 0.12.
In the case of UGUCAGCAAUAUUACGCACC, the “self-splicing fitness (ln)” value reads like this: (30 °C) -1.28 ± 0.18; (37 °C) -0.269 ± 0.21.
Regarding UGUCAGCAAUAUUACGCAUA, the “self-splicing fitness (ln)” value by setting is: (30 °C) -0.485 ± 0.06; (37 °C) 0.0762 ± 0.068.
Turning to UGUCAGCAAUAUUACGCGAA, the “self-splicing fitness (ln)” value runs as follows: (30 °C) -0.455 ± 0.069; (37 °C) 0.0551 ± 0.085.
The like results for UGUCAGCAAUAUUACGCUCU were, in that order, -0.884 ± 0.15 and -0.226 ± 0.13.
For UGUCAGCAAUAUUACGCUGA, the “self-splicing fitness (ln)” value reads like this: (30 °C) -0.7 ± 0.23; (37 °C) -0.59 ± 0.27.
The like results for UGUCAGCAAUAUUACGCUUG were, in that order, -1.09 ± 0.066 and -0.432 ± 0.089.
Taken in the same sequence, the figures for UGUCAGCAAUAUUACGCUUU were -1.13 ± 0.091 and 0.276 ± 0.09.
In the case of UGUCAGCAAUAUUACGGACC, the “self-splicing fitness (ln)” value reads like this: (30 °C) -0.173 ± 0.15; (37 °C) -2.33 ± 0.17.
Taken in the same sequence, the figures for UGUCAGCAAUAUUACGGCGU were -1.95 ± 0.15 and -0.728 ± 0.13.
With UGUCAGCAAUAUUACGGCUC, the “self-splicing fitness (ln)” value by setting is: (30 °C) -2.5 ± 0.15; (37 °C) -0.587 ± 0.16.
The like results for UGUCAGCAAUAUUACGGGAU were, in that order, -3.26 ± 0.15 and -3.32 ± 0.19.
In the case of UGUCAGCAAUAUUACGGGGC, the “self-splicing fitness (ln)” value reads like this: (30 °C) -2.84 ± 0.16; (37 °C) -3.02 ± 0.26.
The like results for UGUCAGCAAUAUUACGGUGU were, in that order, -2.06 ± 0.084 and -1.13 ± 0.1.
The like results for UGUCAGCAAUAUUACGGUUC were, in that order, -3.07 ± 0.2 and -1.63 ± 0.24.
On to UGUCAGCAAUAUUACGUAGG, for which the “self-splicing fitness (ln)” value runs as follows: (30 °C) -0.865 ± 0.079; (37 °C) -0.275 ± 0.1.
Consider UGUCAGCAAUAUUACGUAGU, for which the “self-splicing fitness (ln)” value by setting is: (30 °C) -2.85 ± 0.15; (37 °C) -0.865 ± 0.11.
Turning to UGUCAGCAAUAUUACGUCUG, the “self-splicing fitness (ln)” value (30 °C) is -0.693 ± 0.1 and the “self-splicing fitness (ln)” value (37 °C) is -0.104 ± 0.11.
Taken in the same sequence, the figures for UGUCAGCAAUAUUACGUGCG were -0.00445 ± 0.076 and 0.159 ± 0.092.
In the case of UGUCAGCAAUAUUACGUUGA, the “self-splicing fitness (ln)” value is -3.77 ± 0.23 (30 °C) and -2.47 ± 0.19 (37 °C).
The like results for UGUCAGCAAUAUUACGUUGG were, in that order, -4.09 ± 0.3 and -2.22 ± 0.25.
The like results for UGUGAGCAAUAUUACGAGCU were, in that order, -2.7 ± 0.26 and -2.14 ± 0.41.
The like results for UGUGAGCAAUAUUACGCACG were, in that order, -1.47 ± 0.21 and -1.8 ± 0.21.
Regarding UGUGAGCAAUAUUACGCAUG, the “self-splicing fitness (ln)” value runs as follows: (30 °C) -1.91 ± 0.15; (37 °C) -1.96 ± 0.22.
Regarding UGUGAGCAAUAUUACGCCAG, the “self-splicing fitness (ln)” value runs as follows: (30 °C) -2.23 ± 0.32; (37 °C) -2.01 ± 0.34.
As for UGUGAGCAAUAUUACGCCUC, the “self-splicing fitness (ln)” value (30 °C) is -1.83 ± 0.41.
Take UGUGAGCAAUAUUACGCUAA: the “self-splicing fitness (ln)” value is -2.39 ± 0.17 (30 °C) and -2.04 ± 0.23 (37 °C).
Taken in the same sequence, the figures for UGUGAGCAAUAUUACGGAAU were -3.76 ± 0.32 and -2.04 ± 0.23.
Take UGUGAGCAAUAUUACGUGAA: the “self-splicing fitness (ln)” value (37 °C) was -1.69 ± 0.23.
Consider UGUGAGCAAUAUUACGUGCC, for which the “self-splicing fitness (ln)” value (30 °C) was -2.51 ± 0.3.
As for UGUGAGCAAUAUUACGUGCU, the “self-splicing fitness (ln)” value (30 °C) is -3.34 ± 0.29 and the “self-splicing fitness (ln)” value (37 °C) is -3.41 ± 0.33.
UGUGAGCAAUAUUACGUGUA: the “self-splicing fitness (ln)” value is, setting by setting: (30 °C) -1.49 ± 0.29; (37 °C) -1.46 ± 0.28.
For the sequence UGUGAGCAAUAUUACGUUAA, the “self-splicing fitness (ln)” value runs as follows: (30 °C) -2.97 ± 0.31; (37 °C) -2.44 ± 0.37.
